The values below come from PMC7090004, “IL28A protein homotetramer structure is required for autolysosomal degradation of HCV-NS5A in vitro” (Cell Death & Disease, 2020).

The target in one series is Flag-IL28A-D0 (human) (UniProt Q8IZJ0). Put plainly: SDS-PAGE and Western blot (band of about 70 kDa). (Immunoblotting shows a protein as a band on a membrane.)
Series [1] concerns the molecule itself. Put plainly: SDS-PAGE and Western blot (tetramer and monomer bands).

In general, stoichiometry N refers to a count of units in the complex or per binding partner. In the case of “Flag-IL28A-D0 (from UniProt Q8IZJ0 26-200) (natural protein)”, the stoichiometry N with Flag-IL28A-D0 (human) worked out at 4.

B1: Interferon lambda-2 (IL28A), wild type (natural protein, human, UniProt Q8IZJ0 26-200, looked up)
chain: VPVARLHGALPDARGCHIAQFKSLSPQELQAFKRAKDALEESLLLKDCRCHSRLFPRTWDLRQLQVRERPMALEAELALTLKVLEATADTDPALVDVLDQPLHTLHHILSQFRACIQPQPTAGPRTRGRLHHWLYRLQEAPKKESPGCLEASVTFNLFRLLTRDLNCVASGDLCV
notes: also called WT IL28A; IL28A overexpression construct
For B1, the “stoichiometry N” value in series [1] came out at 4.
